These results are taken from patent publication US20230340555A1, “PRODUCTION OF GLYCOSYLATED CANNABINOIDS” (WILLOW BIOSCIENCES, INC., priority 2020, published 2023).

For the assay, the system named is CN3 yeast strain host cells. The assay can be described thus: Detection of glycosylated cannabinoids and cannabinoid precursors in yeast cells expressing UDP-glycosyl transferase (HPLC-MS). The assay is classed as cell-based. Set-up: key to CBDA-glc / OLA-glc / CBGA-glc / CBGA-(glc)2 / CBD-glc / CBD-(glc)2 / OLA-(glc)2 / CBGA-glucuronic acid: (+) represents the lowest detected quantities; (++), (+++), and (++++) signify relative increasing intermediate detected levels; (++), (+++), and (++++) signify relative increasing intermediate detected levels; (++), (+++), and (++++) signify relative increasing intermediate detected levels; (+++++) represents the highest detected quantities; No detectable levels of a glycosylated cannabinoid compound or glycosylated cannabinoid precursor compound are indicated by “n.d.”. The note with it: for production of glycosylated cannabinoids or cannabinoid precursor compounds: pellet or supernatant of recombinant yeast host cells transformed with the UGT; for OLA-glc: 20 h growth. The source says: CN3 yeast strain host cells were transformed as described in Example 1 with one of the following heterologous UGT genes: (1) AtUGT73C6, (2) AtUGT73B4, (3) AtUGT71 D1, (4) AtUGT76E12, (5) AtUGT88A1, (6) HaUGT76G1-L, (7) At5g49690, (8) AtUGT76C4, (9) CsUGT73C6, (10) SrUGT76C1, (11) AtUGT85A3, (12) AtUGT73B1, (13) Atg65550, (14) AtUGT76B1, (15) ATUGT76B1, (16) CsUGT75B2, (17) CsUGT73B4, (18) CsUGT73B1, (19) CsUGT75D1-DN11028, and (20) CsUGT71D1-DN48028. The transformed host cells were pre-grown overnight in yeast extract peptone dextrose (YPD) growth medium and then back diluted into yeast extract peptone galactose (YPG) to OD600 = 0.2. […] Strains were incubated for 20 h at 28° C. rotating at 600 RPM in an EPOCH|2 microplate reader (BioTek). Subsequently, samples were treated with an extraction solvent (80 % Acetonitrile, 20 % Methanol) for 1 hour rotating at 100 RPM. After 20 minutes centrifugation at 12,000 RPM, the supernatant was filtered with a basix 13 mm syringe filter (0.22 µm pore size, Nylon membrane) and transferred to a new tube for further analysis.
Glycosylated cannabinoid compounds and glycosylated cannabinoid precursor compounds were assayed in the supernatant and the cellular pellet employing HPLC and HPLC-MS analysis. HPLC and HPLC-MS analysis was carried out as described below to detect the following glycosylated cannabinoid and cannabinoid precursor compounds: CBGA monoglucoside, CBGA diglucoside, CBDA monoglucoside, CBDA diglucoside, CBGA glucuronic acid, CBD monoglucoside, CBD diglucoside, olivetolic acid monoglucoside (“OliAcid monoglucoside”), olivetolic acid diglucoside (“OliAcid diglucoside”).
HPLC analysis was carried out on an Agilent Technologies 1290 Infinity system, consisting of a vacuum degasser, a binary pump, a thermostated autosampler, a thermostated column compartment and a diode array detector (DAD). A Zorbax Eclipse Plus EC-18 column (2.1 × 50 mm, 1.8 µm, Agilent, USA) was used with a mobile phase composed of 0.1% formic acid in both (A) water with 0.2 % Formic Acid and (B) Acetonitrile with 0.2 % Formic Acid. The chromatographic conditions were set as follows: 0.0-8.0 min linear gradient from 5 to 95% B; 8.1-9.09 min […], 9.10-11.0 min 5 to 95% A for equilibration of the column with the initial conditions. The flow rate was set at 0.4 ml/min. The column temperature was set at 40° C. The sample injection volume was 5 µL. The UV/DAD acquisitions were carried out in the range 190-400 nm and chromatograms were acquired at 265 and 350 nm.
HPLC-MS analysis was carried out to confirm the identity of the HPLC peaks using an Agilent Technologies 6530 Accurate-Mass quadrupole time of flight (QToF) mass spectrometer operating in negative ionization (ESI -) mode. The mass spectrometer experimental parameters were set as follows: the capillary voltage was 3.5 kV, the nebulizer (N2) pressure was 35 psi, the drying gas temperature was 350° C., the drying gas flow was 11 L/min and the skimmer voltage was 65 V. Data were acquired by Agilent Mass Hunter software. The mass spectrometer was operated in full-scan mode in the m/z range 50-1100. Extracted ion chromatograms (EICs) were obtained with an accuracy of 10 ppm m/z from total ion chromatogram (TIC) employing the m/z corresponding to the molecular ions [M-H]^- 385.1504 for Olivetolic Acid Mono-Glucoside, 547.2032 for Olivetolic Acid di-Glucoside, 521.2756 for CBGA Mono-Glucoside, 683.3284 for CBGA Di-Glucoside, 535.2549 for CBGA Glucuronic Acid, 519.2600 for CBDA Mono-Glucoside, 475.2701 for CBD Mono-Glucoside, 637.3302 for CBD Di-Glucoside.
The glycosylated cannabinoid compounds and glycosylated cannabinoid precursor compounds were detected in a relative and semi-quantitative fashion. […]

B1: AtUGT85A3: UDP-glycosyl transferase from Arabidopsis thaliana, amino acid sequence SEQ ID NO: 22 (protein, listed as Arabidopsis thaliana)
chain: MGSRFVSNEQKPHVVCVPYPAQGHINPMMKVAKLLHVKGFHVTFVNTVYNHNRLLRSRGANALDGLPSFQFESIPDGLPETGVDATQDIPALSESTTKNCLVPFKKLLQRIVTREDVPPVSCIVSDGSMSFTLDVAEELGVPEIHFWTTSACGFMAYLHFYLFIEKGLCPVKDASCLTKEYLDTVIDWIPSMNNVKLKDIPSFIRTTNPNDIMLNFVVREACRTKRASAIILNTFDDLEHDIIQSMQSILPPVYPIGPLHLLVNREIEEDSEIGRMGSNLWKEETECLGWLNTKSRNSVVYVNFGSITIMTTAQLLEFAWGLAATGKEFLWVMRPDSVAGEEAVIPKEFLAETADRRMLTSWCPQEKVLSHPAVGGFLTHCGWNSTLESLSCGVPMVCWPFFAEQQTNCKFSCDEWEVGIEIGGDVKRGEVEAVVRELMDGEKGKKMREKAVEWRRLAEKATKLPCGSSVINFETIVNKVLLGKIPNT
For B1, the “production of glycosylated cannabinoids or cannabinoid precursor compounds” value (from here on “production”) is “No production”.

B2: AtUGT73B1: UDP-glycosyl transferase from Arabidopsis thaliana, amino acid sequence SEQ ID NO: 24 (protein, listed as Arabidopsis thaliana)
chain: MGVFGSNESSSMSIVMYPWLAFGHMTPFLHLSNKLAEKGHKIVFLLPKKALNQLEPLNLYPNLITFHTISIPQVKGLPPGAETNSDVPFFLTHLLAVAMDQTRPEVETIFRTIKPDLVFYDSAHWIPEIAKPIGAKTVCFNIVSAASIALSLVPSAEREVIDGKEMSGEELAKTPLGYPSSKVVLRPHEAKSLSFVWRKHEAIGSFFDGKVTAMRNCDAIAIRTCRETEGKFCDYISRQYSKPVYLTGPVLPGSQPNQPSLDPQWAEWLAKFNHGSVVFCAFGSQPVVNKIDQFQELCLGLESTGFPFLVAIKPPSGVSTVEEALPEGFKERVQGRGVVFGGWIQQPLVLNHPSVGCFVSHCGFGSMWESLMSDCQIVLVPQHGEQILNARLMTEEMEVAVEVEREKKGWFSRQSLENAVKSVMEEGSEIGEKVRKNHDKWRCVLTDSGFSDGYIDKFEQNLIELVKS
Consider B2, for which the “production” value was “No production”.

B3: CsUGT73C6: UDP-glycosyl transferase from Cannabis sativa, amino acid sequence SEQ ID NO: 16 (protein, listed as Cannabis sativa)
chain: MASEPYKLHLIVIPFMAPGHFIPMADMARKLAEHGAMITLITLPVIAARIRPIIEQATENSNLKIQLVQVSLPLHEFGLPEGCDTVDLVPSRNLLLSFFIALDELQQPIEQVVSELKPRPSCIIADKHLPWTAEIATKFGIPRVLFDGMSCFSLLCNHMIRKSQVHLSVPMSVPFVVPGMPDHLEFTRNQLAADLYPNLEFGQKFHDRIRESEEGADGFLVNSFEELEWKYVEGYRKEKVGKAWCIGPVSLFNKTKLEVAQRGNNPAGAVDEKQCTEWLDSWPKSCVVYACLGSVSRLLIPQMIELGVALEASNKPFIWVIRGYDQEEEIEKWISESGFKERTKSRALLIFGWAPQVLILSHSSVGGFLTHCGWNSTLEGITYGKPMITWPMFAEQFYNQKLIVQVLKVGESVGPKFVVPYGREEEFGVFVLSKDILEAIEKVMAQDKEGEERRERVKRLSDMAQKAIEEGGSSYLDMKLFIEDIRNLHIS
Consider B3, for which the “production” value is on record as “detectable”. In addition, the OLA-glc result (detected in PELLET, 0.05 mM hexanoic acid) is given as “++”. In addition, under “detected in SUPERNATANT, 0.2 mM hexanoic acid”, the OLA-glc result was “++”.

B4: CsUGT75D1-DN11028: UDP-glycosyl transferase from Cannabis sativa, amino acid sequence SEQ ID NO: 38 (protein, listed as Cannabis sativa)
chain: MKRTLLFIPSPGIGHLVSMLEFAKRLIQYDDRLFITILSMKFPNHDAYINSLVPSLSQSRVKLAHLPQVDPPPPKLLNSPESYIYVYVESLVPHVRDALKHIVPSHSNSETTHSQGCFVMVLDFFCMPMMDVANELGLPSYMFMPSNIGFLSSMLYLATRHDQISSELKESNPDEYSLKSFHNPVPWSALPQAYFCKDGGYSACVKMAQRFRETKGIIVNSFEGLEAHGATSFNDGETPPIYMVGPVVNFKGQPHSSTDHVQNNRIFKWLDEQPQSSVVFLCFASLGTFDASQLREIASGLECSGHRFLWCIRVQQPTIIDEILPEGFLERIGSKGMICNEWTPQVEVLAHNAVGGFVSHCGWNSILESLWYGVPIVTWPVYAEQQLNAFQMVREFDLAIELRLDYRNRGHNQLVTAEEIGNAIKKLMEGDHNVVMRKKGASGISSMVLSRFYTCKENVVLRQDPRWFAIKAGGEEK
B4: the “production” value is reported as “No production”.

B5: At5g65550: UDP-glycosyl transferase from Arabidopsis thaliana, amino acid sequence SEQ ID NO: 26 (protein, listed as Arabidopsis thaliana)
chain: MAEPKPKLHVAVFPWLALGHMIPYLQLSKLIARKGHTVSFISTARNISRLPNISSDLSVNFVSLPLSQTVDHLPENAEATTDVPETHIAYLKKAFDGLSEAFTEFLEASKPNWIVYDILHHWVPPIAEKLGVRRAIFCTFNAASIIIIGGPASVMIQGHDPRKTAEDLIVPPPWVPFETNIVYRLFEAKRIMEYPTAGVTGVELNDNCRLGLAYVGSEVIVIRSCMELEPEWIQLLSKLQGKPVIPIGLLPATPMDDADDEGTWLDIREWLDRHQAKSVVYVALGTEVTISNEEIQGLAHGLELCRLPFFWTLRKRTRASMLLPDGFKERVKERGVIWTEWVPQTKILSHGSVGGFVTHCGWGSAVEGLSFGVPLIMFPCNLDQPLVARLLSGMNIGLEIPRNERDGLFTSASVAETIRHVVVEEEGKIYRNNAASQQKKIFGNKRLQDQYADGFIEFLENPIAGV
With B5, the “production” value is “No production”.

B6: CsUGT71 D1-DN48028: UDP-glycosyl transferase from Cannabis sativa, amino acid sequence SEQ ID NO: 40 (protein, listed as Cannabis sativa)
chain: MARVELVFIPAPAIGHLVSTLEFAKRLIHYDHRLFITVLCEFSLKSHLDAYIDSLVASLSLAHRIKLVHLPLVDSPPVELLKSIENFIYQYMESLVPHVRKALTDIVSSNSNYSQGDVVLVLDFFCMPMMDVANELGLPSYMFMTSNLGLLSLMFYLATRHNQISSELEESDAPLRLQGFQNPVPSSVLPTAAFCKDGGYSAYVKLAQRFRETKGIIVNSFEELESYSFSSMNDGAETPPIYMVGPVLDLNGQPHPSMDQVQNDKILKWLDEQPHSSVVFLCFGSMGKFGASQLREIASGLQRSGHRFLWSVRVQQPTTIDEILPEGFLEQIGSKGMICNEWAPQVKILAHSAVGGFLSHCGWNSILESLWYGVPVATWPIYAEQQLNAFRMVREFGLAVDLRLDYKDRGDDHIVSAEEIETAVKHLMEGDKEVRKKVKEMSETARKSVEEGGSSFTAIGKLINSIIGSNYY
In the case of B6, the “production” value is “No production”.
